The values below come from the supplement of paper PMC11246515.

± gives the standard deviation of the averaged measurements.

The data set in a line: total protein half-life in vivo (active degradation + dilution); higher = more stable protein.
Setting [1] is: E. coli NCM3722 delta-clpP delta-lon delta-hslV, growth: N-lim chemostat, doubling time 6 h.
The mark [2] stands for this setting: E. coli NCM3722 delta-clpP, growth: N-lim chemostat, doubling time 6 h.
Setting [3] is: E. coli NCM3722 delta-lon, growth: N-lim chemostat, doubling time 6 h.
[4] abbreviates: E. coli NCM3722 delta-smpB, growth: N-lim chemostat, doubling time 6 h.
[5] abbreviates: wild type E. coli NCM3722, growth: C-lim chemostat, doubling time 3 h.
Setting [6] is: wild type E. coli NCM3722, growth: C-lim chemostat, doubling time 6 h.
Where [7] appears, read: wild type E. coli NCM3722, growth: C-lim chemostat, doubling time 12 h.
Setting [8] is: wild type E. coli NCM3722, growth: N-lim chemostat, doubling time 6 h.
[9] abbreviates: wild type E. coli NCM3722, growth: N-lim chemostat, doubling time 12 h.
Setting [10] is: wild type E. coli NCM3722, growth: P-lim chemostat, doubling time 6 h.
Setting [11] is: wild type E. coli NCM3722, growth: P-lim chemostat, doubling time 12 h.
The mark [12] stands for this setting: E. coli NCM3722 delta-hslV, growth: N-lim chemostat, doubling time 6 h.

In the case of “MITVALIDDHLIVRSGFAQLLGLEPDLQVVAEFGSGREALAGLPGRGVQVCICDISMPDISGLELLSQLPKGMATIMLSVHDSPALVEQALNAGARGFLSKRCSPDELIAAVHTVATGGCYLTPDIAIKLASGRQDPLTKRERQVAEKLAQGMAVKEIAAELGLSPKTVHVHRANLMEKLGVSNDVELARRMFDGW [P0AGA6]”, the “total protein half-life in vivo” value worked out at 5.29 ± 0.12 h under setting [1]; 4.19 ± 0.075 h under setting [2]; 4.25 ± 1.2 h under setting [3]; 3.84 ± 0.34 h under setting [4]; 2.7 ± 0.14 h under setting [5]; 4.26 ± 1.2 h under setting [6]. Further, the “total protein half-life in vivo” value under setting [7] is 8.86 ± 0.39 h; the “total protein half-life in vivo” value under setting [8] came to 4.01 ± 0.17 h; the “total protein half-life in vivo” value under setting [9] is 6.351 ± 0.022 h; the “total protein half-life in vivo” value under setting [10] amounted to 4.35 ± 0.56 h; the “total protein half-life in vivo” value under setting [11] was 7.3 ± 0.44 h.
Consider “MSRVTAIISALIICIIVSLSWAVNHYRDNAIAYKVQRDKNARELKLANAAITDMQMRQRDVAALDAKYTKELADAKAENDALRDDVAAGRRRLHIKAVCQSVREATTASGVDNAASPRLADTAERDYFTLRERLITMQKQLEGTQKYINEQCR”, for which the “total protein half-life in vivo” value under setting [7] was 3.49 h and the “total protein half-life in vivo” value under setting [11] is 6.44 h.
For “MNNEPLRPDPDRLLEQTAAPHRGKLKVFFGACAGVGKTWAMLAEAQRLRAQGLDIVVGVVETHGRKDTAAMLEGLAVLPLKRQAYRGRHISEFDLDAALARRPALILMDELAHSNAPGSRHPKRWQDIEELLEAGIDVFTTVNVQHLESLNDVVSGVTGIQVRETVPDPFFDAADDVVLVDLPPDDLRQRLKEGKVYIAGQAERAIEHFFRKGNLIALRELALRRTADRVDEQMRAWRGHPGEEKVWHTRDAILLCIGHNTGSEKLVRAAARLASRLGSVWHAVYVETPALHRLPEKKRRAILSALRLAQELGAETATLSDPAEEKAVVRYAREHNLGKIILGRPASRRWWRRETFADRLARIAPDLDQVLVALDEPPARTINNAPDNRSFKDKWRVQIQGCVVAAALCAVITLIAMQWLMAFDAANLVMLYLLGVVVVALFYGRWPSVVATVINVVSFDLFFIAPRGTLAVSDVQYLLTFAVMLTVGLVIGNLTAGVRYQARVARYREQRTRHLYEMSKALAVGRSPQDIAATSEQFIASTFHARSQVLLPDDNGKLQPLTHPQGMTPWDDAIAQWSFDKGLPAGAGTDTLPGVPYQILPLKSGEKTYGLVVVEPGNLRQLMIPEQQRLLETFTLLVANALERLTLTASEEQARMASEREQIRNALLAALSHDLRTPLTVLFGQAEILTLDLASEGSPHARQASEIRQHVLNTTRLVNNLLDMARIQSGGFNLKKEWLTLEEVVGSALQMLEPGLSSPINLSLPEPLTLIHVDGPLFERVLINLLENAVKYAGAQAEIGIDAHVEGENLQLDVWDNGPGLPPGQEQTIFDKFARGNKESAVPGVGLGLAICRAIVDVHGGTITAFNRPEGGACFRVTLPQQTAPELEEFHEDM”, the “total protein half-life in vivo” value is, setting by setting: under setting [1], 6.66 ± 0.19 h; under setting [2], 6.31 ± 0.4 h; under setting [12], 6.32 ± 0.48 h; under setting [3], 5.21 ± 0.13 h; under setting [4], 5.88 ± 0.37 h; under setting [5], 3.44 ± 0.035 h. The “total protein half-life in vivo” value under setting [6] came out at 6 ± 0.74 h; the “total protein half-life in vivo” value under setting [7] is 12.1 ± 1 h; the “total protein half-life in vivo” value under setting [8] was 5.56 ± 0.21 h; the “total protein half-life in vivo” value under setting [9] came to 10.7 ± 0.66 h; the “total protein half-life in vivo” value under setting [10] was 6.348 ± 0.059 h; the “total protein half-life in vivo” value under setting [11] was 11.6 ± 0.51 h.
As to “MNIRPLHDRVIVKRKEVETKSAGGIVLTGSAAAKSTRGEVLAVGNGRILENGEVKPLDVKVGDIVIFNDGYGVKSEKIDNEEVLIMSESDILAIVEA [P0A6F9]”, the “total protein half-life in vivo” value worked out at 5.5416 ± 0.005 h under setting [1]; 5.34 ± 0.43 h under setting [2]; 5.26 ± 0.4 h under setting [12]; 6.18 ± 0.9 h under setting [3]; 5.092 ± 0.02 h under setting [4]; 3.051 ± 0.0027 h under setting [5]. For the same sequence, the “total protein half-life in vivo” value by setting is: under setting [6], 6.27 ± 0.87 h; under setting [7], 10.6 ± 1.3 h; under setting [8], 5.03 ± 0.15 h; under setting [9], 8.21 ± 0.97 h; under setting [10], 5.36 ± 0.23 h; under setting [11], 12.5 ± 1.7 h.
With “MRIPRIYHPEPLTSHSHIALCEDAANHIGRVLRMGPGQALQLFDGSNQVFDAEITSASKKSVEVKVLEGQIDDRESPLHIHLGQVMSRGEKMEFTIQKSIELGVSLITPLFSERCGVKLDSERLNKKLQQWQKIAIAACEQCGRNRVPEIRPAMDLEAWCAEQDEGLKLNLHPRASNSINTLPLPVERVRLLIGPEGGLSADEIAMTARYQFTDILLGPRVLRTETTALTAITALQVRFGDLG [P0AGL7]”, the “total protein half-life in vivo” value was determined as 5.91 ± 0.64 h under setting [2]; 5.44 ± 0.24 h under setting [12]; 5.41 ± 0.067 h under setting [3]; 5.19 ± 0.13 h under setting [4]; 2.98 ± 0.25 h under setting [5]; 6.14 ± 1.9 h under setting [6]. The “total protein half-life in vivo” value was 10.1 ± 2.1 h under setting [7]; 5.45 ± 0.37 h under setting [8]; 10.7 ± 0.42 h under setting [9]; 6.05 ± 0.38 h under setting [10]; 12.31 ± 0.12 h under setting [11].
In the case of “MNILLAFKAEPDAGMLAEKEWQAAAQGKSGPDISLLRSLLGADEQAAAALLLAQRKNGTPMSLTALSMGDERALHWLRYLMALGFEEAVLLETAADLRFAPEFVARHIAEWQHQNPLDLIITGCQSSEGQNGQTPFLLAEMLGWPCFTQVERFTLDALFITLEQRTEHGLRCCRVRLPAVIAVRQCGEVALPVPGMRQRMAAGKAEIIRKTVAAEMPAMQCLQLARAEQRRGATLIDGQTVAEKAQKLWQDYLRQRMQP”, the “total protein half-life in vivo” value under setting [1] stood at 5.73 ± 0.78 h.
